Test results reported in the nanobody polyreactivity screen of Harvey et al. (2022).

Assay: yeast display, Sf9 membrane polyspecificity reagent, FACS + sequencing; frameworks hold sequencing errors
Summary of the method: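 A nanobody's polyreactivity label depends on the gate it was sorted from. Yeast display cells were stained with 10% biotinylated, detergent-solubilized Sf9 membrane reagent for 1 hour at 4 °C, enriched on streptavidin microbeads and sorted by FACS. The low and high (top ~1%) gates were set on anti-HA fluorescence for expression and streptavidin fluorescence for reagent binding.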

| Sequence | polyreactivity (PSR sort gate) |
| --- | --- |
| QVQLVESGGGLVQAGGSLRLSCAASGIIYNPNAMGWYRQAPGKERELVAVISISDSTNYADSVKGRFTISRDNAKNTVYLQMNSLKPEDTAVYDCATASAGTLSVTYYHWYDDWGQGTQVTVSS | low polyreactivity |
| QVQLVESGGGLVQAGGSLRLSCAASGILFSAHAMGWYRQAPGKERELVAAISKSGSRTYYADSVKGRFTISRDNAKNTVYLQMNSLKPEDTAVYYCNAVTYSRRYAYYYWGQGTQVTVSS | high polyreactivity |
| QVQLVESGGGLVQAGGSLRLSCAASGINLNNYPLGSYRQAPGKDRELVAAITSSGTRTYYADSVKGRFTISRDNAKINVYLQMNSLKPEDTAVYYCAAQPVYDLWGQGTQVTVSS | high polyreactivity |
| QVQLVESGGGLVQAGGSLRLSCAASGINLRRYAMGWYRQAPGKERELVARISYRGGRTNYADSVKGRFTISRDNAKNTVYLQMNSLKPEDTAVYYCAAVAWYYHEGTAYNYWGQGTQVTVSS | high polyreactivity |
| QVQLVESGGGLVQAGGSLRLSCAASGIPFEGYAMGWYRQAPGKERELVAAIRSSGTSTYYADSVKGRFTISRDTAKNTVYLQMNSLKPEDTAVYYCNRARSSSRYDYWGQGTQVTVSS | low polyreactivity |
| QVQLVESGGGLVQAGGSLRLSCAASGIPFKGYAMGWYRQAPGQERELVAASNSRGGTYADSVKGRFTISRDNAKNTVYLQRNSLKPEDTAVYYCGVSAVRPLPLDSGYDYWGQGSQVTVSS | low polyreactivity |
| QVQLVESGGGLVQAGGSLRLSCAASGIPRNTMGWYRQAPGKERELVASISTSGGSTYYADSVKGRFTISRDNAKNTVYLPMNSLKPEDTAVYYCAKKGYASRYFIYDYWGQGTQVTVSS | low polyreactivity |
| QVQLVESGGGLVQAGGSLRLSCAASGIRFAQYTMGGYRQAHGKESELVAAINRNGGSTYYADSVKGRFTISRDNAKNTVYLQMNSLKPEDTPVYYCNADALGFRYDYWGQGTQVTVSS | low polyreactivity |
| QVQLVESGGGLVQAGGSLRLSCAASGISIRSYAMGWYRQAPGKERELVAAIRSGGSTSYADSVKGRFTISRDNAKNTVYLLMNSLKPEDTAVYYCAAGGYVPLPDITFWKFGYWGQGTQVNVSS | low polyreactivity |
| QVQLVESGGGLVQAGGSLRLSCAASGITFADNAMGWYRQAPGKERELVASISKSSGSTYYADSVKGRFTISRDNAKNTVYLQMNSLKPEDTAVYYCATDPYVRRSPSWYDYWGQGTQVTVSS | low polyreactivity |
| QVQLVESGGGLVQAGGSLRLSCAASGITFAFYAMGWYRQAPGKERELVAAISWSGTRTYYADSVKGRFTISRDNAKNTVYLQMNSLKPEDSAVYYCAADYQAGDKLYDYWGQGTQVTVSS | low polyreactivity |
| QVQLVESGGGLVQAGGSLRLSCAASGITFAFYDMGWYRQAPGKERELVAAISYSGGGTYYADSVKGRFTISRDNAKNTVYLQMNSLKPEDTAVYYCAADPKTHPLFGEDYWGQGTQVTVSS | low polyreactivity |
| QVQLVESGGGLVQAGGSLRLSCAASGITFAGYAMGWYRQAPGKERELVAAITRGGGITYYADSVKGRFTISRDNAKNTVYLQMNSLKPEDTPVDYCNAVVTSAAGYFPLLYDYWGQGTQVTVSS | high polyreactivity |
| QVQLVESGGGLVQAGGSLRLSCAASGITFAGYAMRWYRQAPGKERELVASMTWGGGRTYYADSVKRRFTISRDNAKNTVYLQMNSLKPEDTAVYYCATRRRPQYNKYDYWGQGTQVTVSS | high polyreactivity |
| QVQLVESGGGLVQAGGSLRLSCAASGITFARYAMGLYRQAPGKERELVAAISWSGGSTYYADSVKGRFTISRDNAKNTVYLQMNSLKPEDTAVYYCAAGGRVRRNKFDYWGQGTQVTVSS | high polyreactivity |
| QVQLVESGGGLVQAGGSLRLSCAASGITFASNTMGCYIQAPGKERELVAAITRGDNTYYADSVKGRFTISRDNAKNTVYLQMNSLKAEDPAVYYCATEGYQIQYEHDYWGQGTQVTVSS | low polyreactivity |
